Laboratory results taken from patent CN114106162A (ANYUAN MEDICINE SCIENCE AND TECH SHANGHAI LIMITED COMPANY, dated 2022).

Assays:
[1] = molecular target: T1, SARS-CoV-2 S1蛋白 (ACRO Biosystems) (SARS-CoV-2, UniProt P0DTC2 16-685); experiment: competition ELISA, S1 coated, HRP-hACE2-Fc as competitor
T1 construct: domain: S1

刺突S蛋白-鼠Fc融合蛋白(S-mFc) = 刺突S蛋白-鼠Fc融合蛋白(S-mFc) (SARS-CoV-2; mouse, UniProt P0DTC2 14-1213); experiment: FACS competition: antibody blocks binding of S-mFc to 293T-ACE2 cells

Binder | EC50 [1] [µg/mL] | IC50 (刺突S蛋白-鼠Fc融合蛋白(S-mFc)) [µg/mL]
人源化抗体hS1B-82-5 (antibody, V domains shown, also called 抗SARS-CoV-2 S1人源化抗体; 人源化单克隆抗体hS1B-82-5) VH: EVILSESGGGSVKPGGSLRLSCAASGFTFSSYAMSWIRQAPGKRLEWGSTINSGGNFIYYPDSVKGRFTISRDNAKNSLYLQMNSLRAEDTAVYFCGRHSGNYVDSAMDYWGQGTTVTVSS VL: EIVLTQSPATLSVSPGERATLSCSASSSVSDMHWYQQKPGKSPKLLIYSTSNLASGVPSRFSGSGSGTEYTLTISSLQPEDVATYYCHQWSTWTFGGGTKVEIKR | 0.166 | 0.0193
鼠源单克隆抗体S1B-82-5 (antibody, V domains shown, also called 鼠源抗体S1B-82-5; 鼠抗S1B-82-5) VH: EVILVESGGGLVKPGGSLKLSCAASGFTFSSYAMSWIRQTPEKRLEWGATINSGGNFIYYPDSVKGRFTISRDNAKNTLYLQMSSLRSEDTAMYFCGRHSGNYVDSAMDYWGQGTSVTVSS VL: QIVLTQSPAIMSASLGEEITLTCSASSSVSDMHWYQQKSGSSPKLLIYSTSNLASGVPSRFSGSGSGTFYSLTVSSVEAEDAADYYCHQWSTWTFGGGTKLEIK | – | 0.016
